Test system: K4 kissing-loop RNA reporter
Assay: apparent KD of K4 kissing-loop reporter; higher = weaker reporter binding
Conditions: Eterna round: R107
Description: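 RNA-MaP round R107: designed RNA switches with theophylline, tryptophan, arginine or FMN aptamers are transcribed on-chip within common flanks. They are titrated with a labelled K4 kissing-loop RNA reporter in RNA-MaP buffer (100 mM Tris pH 7.5, 80 mM KCl, 4 mM MgCl2), without ligand or with the indicated ligand. Median apparent KD per design.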

[1] = input ligand: theophylline 20 uM
[2] = input ligand: tryptophan 2.4 mM
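Note: bound reporter read as fluorescence of individual clusters on recovered sequencing chips by microscopy, with normalized cluster intensities fitted with a binding model.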

Sequence | apparent KD of K4 kissing-loop reporter (input ligand: FMN 200 uM) [nM] | apparent KD of K4 kissing-loop reporter (input ligand: arginine 13.2 mM) [nM] | apparent KD of K4 kissing-loop reporter (input ligand: none) [nM] | apparent KD of K4 kissing-loop reporter [1] [nM] | apparent KD of K4 kissing-loop reporter [2] [nM]
AAGUGAUGUUGUAGUGAUGUUGUGAUGUUGCAGGAUAUAUAGUGAUGUAGAAGGGUAUGUGCAGUGUUCUUAUUUGAGUGUUGAU [zffdmullin] | 80.1 | 33.9 | 64.7 | 63.2 | 64
AGACUACCACACUGUCAAUAGACAGUGAGCUAGGAUAUGCUGAUAAGCAGAAGGAGUGAUGUUCCUGGGUAGUCAAUAAAAUAAU [FmnAX 13 G29+G67] | 399 | 349 | 362 | 441 | 342
UCAGAGAACGAAGGAUAUUGACCUGUUUUAUGCUAUGAGUGAUGUUCUUAGUAUCAGCGAGAUGAUCAAGAAGGUCGGGUUCGAC [theeternabot_sameState_KL_FMN_B_48] | 125 | 174 | 197 | 183 | 152
GGGUAUUACGGAGGAUAUGCACUGAGGAGGAGAAUAUAGUGAUGUUAUAUAAGAGGAAGGAGAAGAGUAGAAGGCCGUGGUAUUG [SSFMNB.H] | 247 | 217 | 280 | 277 | 190
UGUGUUGUUGUGAUGUUUGGUGUUGUAGGGCAGGAUAUCGUAGAGGCGAGAAGGGCUUGUGGGCGGUAUGAGUGAUGUUUGUAGG [cfiuxmullin] | 116 | 77.6 | 124 | 143 | 101
UUUCGGUUCUGAGGAUAUUCGGACAAAUAUAGUGAUGUUGUAUAAGGAGGAGGGUGUUGGGAGUGAGGAGAAGGCAGAAGAGGAU [ExFMNB.S] | 838 | 707 | 759 | 670 | 473
AAGUGAUGUUGUAGUGAUGUUGUGAUGUUGCAGGAUAUAUAGUGAUGUAGAAGGGUAUGUACUUAUUUUUUUUUUGAGUUAUGUU [wzzwzrmullin] | 79.5 | 33.4 | 58 | 46.2 | 63.3
UCGCCAAAGUCGGCCGCCACUCCGGGCCCUAUAAAUGGGCGCAGUGAUGUUGCGGCUAGGCCUCUGAGGACCGGGACUUUGUAAA [Tiesgeza] | 119 | 85.2 | 68.9 | 32.5 | 133
UAAUAUCCGUCGGCCGCCACUCACUAGUGAUGUUAGAGGAGUGAUGUUCCACGAGUGAUGUUCGAGAGGACCGGGACGGACGAUG [7th] | 75.1 | 60 | 65.3 | 56.6 | 54.9
UCCUAGGCUCGAAAGAGCCUAGGUUAGACUCAGGAUAUCUGGAAACAGAGAAGGGAGCUACUAGUGAUGUUAGGAAUUCCCAUUU | 102 | 85.7 | 97.5 | 88.5 | 95.6
UGUACCGAGUCAGGAUAUGGCGUCGAAAGACGAAUCUUAGUGAUGUUAGGGAUCUGCGAAAGCAGUCCAGAAGGGACUUGGUACU [FmnBS 26 U37] | 568 | 583 | 768 | 605 | 902
GGAGUAACCUGGGAUACCAGUCGGAGGCCUAGGGAUCGGAGUGAUGUUCUGGGAUGUUUCGGCCCUUGGCAGCUCUGGGUCUCCG [#2 Exclusion - Theophylline B Attempt #2 (HarryS)] | 184 | 105 | 151 | 158 | 144
CGCAGUGAUGUUGCGAGUUUGAUCAGGGAAGGAGCGGCUCAGAAGCCAGGUAGGUCGCCCACGCAGUGAUGUUGUGUAUUCGGGU [Exclusion Arginine A GF 1] | 96.9 | 88.1 | 87.9 | 89.1 | 79.3
UAAAUAAAAUCCUAGUGAUGUUAGGAUAUGUAGGAUAUCGGGAUACCGAGAAGGACAGAAGGAGGAGUGAUGUUCCUCAAUAAAU [FmnAX 30 #DoubleAptamer #DoubleK4 #OpenEnded] | 72 | 72.1 | 59.3 | 74.5 | 59.5
UUAACCAACAGCGAUACCAGCGUGGAGUGAUGUUCCGAGGAUCGGAGUGAUGUUCCGAAGCGCCCUUGGCAGCGCAGAAGCGCAA [Exclusion Theophylline B GF8] | 193 | 148 | 241 | 251 | 255
UGACUGGACUGAAGGAGCGUUCAGGUAGGUCGCAUAGGAGUGAUGUUCCAAUGAAGGAGCGAGCAGGUAGGUCGCAGUCUAGUCU [ArgBS 13 #DoubleAptamer #SwitchBubble] | 157 | 219 | 243 | 205 | 158

Sequence | apparent KD of K4 kissing-loop reporter (input ligand: FMN 200 uM) [nM] | apparent KD of K4 kissing-loop reporter (input ligand: arginine 13.2 mM) [nM] | apparent KD of K4 kissing-loop reporter (input ligand: none) [nM] | apparent KD of K4 kissing-loop reporter [1] [nM] | apparent KD of K4 kissing-loop reporter [2] [nM]
AGACUUCACCGAAGGAGCGACGUGGCCUAGUGAUGUUAGGCACGAGAGAAAUCUCGUAUACGUCAGGUAGGUCGCGGUGAAGUCA [Omei KL Arginine B SS C v6] | 204 | 142 | 165 | 160 | 180
UUGACCUACUCAGGAUAUCCGCAGUGAUGUUGCGGUUGGCCUGAGCGGCAUGAAAAUCUUACUACAGGAGAAGGGAGAGGGUUAC [Atusgeis] | 117 | 85.6 | 82.6 | 72.9 | 86
AAUUCAAACUGAAGGAGCGAGCAUUUUGGAGUGAUGUUCCAAGCGAGUGAUGUUCGCAUAGCUCAGGUAGGUCGCAGUUUGGAUA [Same State Arginie B GF 14] | 143 | 136 | 144 | 143 | 139
ACAGGAUCGAAGAUCCUGAGCAGUCAAAACCGAGGACCGGUACGGCCGCCACUCGGAGUGAUGUUCCGAAGACUGCAAAAUAAAA [#SwitchBubble 3] | 1090 | 760 | 1010 | 1010 | 692
CCGGCCCAGCCGGAUACCAGUGCGCCGCAGGGAACGGCGGGCCCAGAGUGAUGUUCGGGACACCCUUGGCAGCCGCCUGGGUCGU [#2 Same State - Theophylline B Attempt #28 (HarryS)] | 414 | 262 | 365 | 258 | 274
AUCAUUAGUUCGGCCGCCACUCCAGUGAUGUUGGAGGGACGCAUAAUAUGCGCGCGGCCAACUAGGAGGACCGGGAACUUUAAGC [Intionge] | 120 | 122 | 118 | 126 | 103
GUAUCGCUAGGAGGAUAUUUCAAUUUGACUCUUUGAGUUAUUACGGAGUGAUGUUCCGAUUUACGGAAAGAAGGCCUAGUGAUAC [FMN B 12] | 140 | 170 | 202 | 172 | 179
AAUUCUUAUCUUAGUUGAUUUCUAAUUAAACGAGGACCGGUACGGCCGCCACUCGGUUAUGAGUGAUGUUCAUGGAAUUACAUAA [JR_SSTryptoA_Sub019] | 407 | 601 | 515 | 791 | 169
UGUCAUUGGUCGGCCGCCACUUCGUGUAGAGUGAUGUUUUGUAGGACGGAUCGAAAGAUCUGUCGGAGGACCGGGACCGAUGACU [FiskerMod 17 - Jieux - Same State - Tryptophan B] | 228 | 139 | 408 | 481 | 889
CCUUCUCAUUUCCGUUAUCAUUGCCUUAGGAAGGAUAUCAUUAUUUUGAGAAGGUCCGUGGUCUAUUUUCCGAGUGAUGUUUGGU [theeternabot_exclusion_KL_FMN_A_45] | 273 | 226 | 311 | 277 | 248
AGUACAAUGGCGGCCGCCACUCAACGCAGAUCAAAGAUCUGCGAUCACUCAGUGAUGUUGAGUGAGAGGACCGGGCCUUUGUACA [Omei KL Tryp B SS B v6] | 354 | 272 | 307 | 311 | 135
UAUUAAUUGUCAGGAUAUCGUAUUCGAGUGAUGUUCGUAUAUCGACGAUAGUCGAUUCUAUCUAUACGAGAAGGGACAUUAUUUA [JR_SSFMNB_Sub007] | 801 | 711 | 1090 | 804 | 755
GUUACGCAUGGAAGGAGCGCGAAUUUAAUUAGUGAGUGAUGUUCACAUAAAAUGUAUAAUACGCAGGUAGGUCGCCAUGUGUAAC [whbob_Ex_Arginine_B_2th163] | 81.9 | 84 | 77.2 | 85.7 | 81.3
UGUCAUGGAAACAUGAACGUUAAAAUAAAUCGAGGACCGGUACGGCCGCCACUCGUAUAGCGGUCAGUGAUGUUGACUGUAGUAA [KL-SSTryp-A form2 sub8] | 99.2 | 116 | 108 | 116 | 96.8
UGUCAUUGGUCGGCCGCCACUUCAUGUAGAGUGAUGUUUUGUAGGACGGAUCGAAAGAUCUGUCGAAGGACCGGGACCGAUGACU [FiskerMod 15 - Jieux - Same State - Tryptophan B] | 233 | 84.7 | 197 | 235 | 1040
CGCCGAUUGUCGGAGUGAUGUUCCCGGGAUACCAGCACGUCGUCAUGCCCUUGGCAGCCCAACAGACCAUUUUAAAGGCUAGCUG [theeternabot_sameState_KL_Theo_A_35] | 330 | 97.8 | 122 | 221 | 158

— the supplement of paper PMC9170038
